Reference: US20130177598A1, “DISCRETE SIZE AND SHAPE SPECIFIC PHARMACEUTICAL ORGANIC NANOPARTICLES” (The University of North Carolina at Chapel Hill, priority 2007, published 2013)

Experiment: Enzymatic activity assay of free horseradish peroxidase and PRINT particles thereof
Assay type: biochemical
Conditions: 10 ng/mL-10 mg/mL in buffer; compared with free horseradish peroxidase
Procedure: A standard enzymatic assay of horseradish peroxidase (reference P6782; Sigma Aldrich) was conduted on free horseradish peroxidase and PRINT particles thereof in the concentration range of 10 ng/mL-10 mg/mL in buffer. The substrates used were hydrogen peroxide and pyrogallol. […] See, FIG. 32.

For “horseradish peroxidase PRINT particles: PRINT particles of horseradish peroxidase, 200 nm x 200 nm cylinders”, the “retention of biological structure and function after molding (enzyme activity)” value was “retains biological structure and function”.
